The source of these data is patent US10787640B2, “Producing mesodermal cell types and methods of using the same” (The Board of Trustees of the Leland Stanford Junior …, priority 2015, dated 2020).

For one assay, the system named is hESCs. The experiment in a line: Primitive streak (PS) induction from hESCs, qPCR. The class given is cell-based, human. The protocol:
As aforementioned, after overnight plating, hPSCs were briefly washed (with DMEM/F12) and then differentiated into either anterior primitive streak (30 ng/mL Activin A+4 μM CHIR99021+20 ng/mL FGF2+100 nM PIK90; for subsequent paraxial mesoderm induction) or mid primitive streak ([…] Activin A+40 ng/mL BMP4+6 μM CHIR99021+20 ng/mL FGF2+100 nM PIK90; for subsequent cardiac mesoderm induction) for 24 hrs.
Total cDNA was diluted 1:10-1:30 in H2O and qPCR was performed with the SensiFAST SYBR Lo-ROX Kit (Bioline) with 10 μL qPCR reactions per well in a 384-well plate: 5.0 μL 2× qPCR Master Mix+4.6 μL cDNA (totaling ˜120 ng of cDNA)+0.4 μL of 10 μM primer stock (5 μM forward+5 μM reverse primers). In general, gene-specific primer pairs were tested for (1) specificity of amplicon amplification (only one peak on a dissociation curve) and (2) linearity of amplicon amplification (linear detection of gene expression in cDNA samples serially diluted seven times over two orders of magnitude, with 90-110% efficiency of amplification deemed acceptably linear). After qPCR plates were prepared by arraying sample-specific cDNAs and gene-specific primers, they were sealed and briefly centrifuged (5 mins). 384-well qPCR plates and their adhesive sealing sheets were obtained from Thermo (AB1384 and AB0558, respectively). qPCR plates were run on a 7900HT Fast Real-Time PCR System (Applied Biosystems) with the following cycling parameters: initial dissociation (95° C., 2 mins) followed by 40 cycles of amplification and SYBR signal detection (95° C. dissociation, 5 seconds; 60° C. annealing, 10 seconds; followed by 72° C. extension, 30 seconds), with a final series of steps to generate a dissociation curve at the end of each qPCR run. During qPCR data analysis, the fluorescence threshold to determine Ct values was set at the linear phase of amplification; other qPCR data analysis methods including qPCR heatmap generation using the GenePattern platform (Broad Institute) were described previously by Loh et al., 2014, the disclosure of which is incorporated herein by reference in its entirety.
E) To assess whether inducing PS in the presence of TGFβ signaling altered its downstream potential to form different kinds of mesoderm, (i) H7 hESCs were differentiated into PS with CHIR99021+FGF2+PIK90 (CFK) for 24 hours in the presence or absence of increasing amounts of Activin (10-100 ng/mL), and then were transferred into paraxial mesoderm induction conditions (A-83-01+CHIR99021+DM3189+FGF2) for 24 hrs, and qPCR was conducted or (ii) H7 hESCs were differentiated into PS with BMP4 (10 ng/mL)+CHIR99021+FGF2+PIK90 (B10CFK) for 24 hours in the presence or absence of increasing amounts of Activin (10-100 ng/mL), and then were transferred into lateral/cardiac mesoderm inductions (A-83-01+BMP4+C59) for 24 hours and qPCR was conducted. […] F) To assess whether inducing PS in the presence of BMP signaling altered its downstream potential to form different kinds of mesoderm, H7 hESCs were differentiated into PS with Activin (10 ng/mL)+CHIR99021+FGF2+PIK90 (A10CFK) for 24 hours in the presence of absence of increasing amounts of BMP4 (1-40 ng/mL), and then were (i) transferred into paraxial mesoderm induction conditions (A-83-01+CHIR99021+DM3189+FGF2) for 24 hrs, and qPCR was conducted or were (ii) transferred into lateral/cardiac mesoderm inductions (A-83-01+BMP4+C59) for 24 hours and qPCR was conducted. […] G) H7 hESCs were differentiated into anterior primitive streak (30 ng/mL Activin+4 μM CHIR99021+20 ng/mL FGF2+100 nM PIK90) in the presence or absence of BMP4 (10 ng/mL) for 24 hours, and then transferred into paraxial mesoderm induction conditions for 24 hours before TBX6 immunostaining was conducted. […]

The subject of assay [1] is hESC-derived cardiac mesoderm. The experiment in a line: Cardiac mesoderm differentiation into cardiovascular fates, qPCR. In kind it is cell-based, human. The protocol: Day 2 lateral mesoderm was differentiated into day 4 cardiac mesoderm by treating them with 1 μM A8301+30 ng/mL BMP4+1 μM C59+20 ng/mL FGF2 for 48 hrs, or alternatively, with 1 μM A8301+30 ng/mL BMP4+20 ng/mL FGF2 for 24 hrs followed by 25 ng/mL Activin+30 ng/mL BMP4+1 μM C59 for the next 24 hrs (schema in FIG. 5E; positive effect of mid-stage Activin shown in FIG. 12K). Subsequently, day 4 cardiac mesoderm was briefly washed (DMEM/F12) and treated with 30 ng/mL BMP4+1 μM XAV939+200 μg/mL 2-phospho-ascorbic acid (Sigma) for 48-96 hrs to yield day 6-8 cardiomyocyte-containing populations. Spontaneously contracting cardiomyocyte foci were evident from day 8 onwards.
C) To reveal the possible identity of non-cardiac mesoderm lineages that were contaminating cardiac mesoderm-containing cultures, NKX2.5-GFP hESCs were differentiated towards mid primitive streak (day 1) and were differentiated towards a heterogeneous population containing cardiac mesoderm (day 3) by treatment with SB-505124+BMP4+C59 (without FGF2) on days 2-3 of differentiation. FACS was performed on day 3 to purify either NKX2.5-GFP^+ or NKX2.5-GFP^− cells (top subpanels) which were sorted for qPCR (bottom subpanels). Gene expression was normalized to expression of a gene in the NKX2.5-GFP^+ fraction (dotted line). D) Timecourse of gene expression in hESCs differentiating towards mid primitive streak and lateral mesoderm, with treatment by SB-505124+BMP4+C59 on days 2-3 of differentiation. […] G) To assess whether a stabilized vitamin C analog (ascorbic acid-2-phosphate) (AA2P) enhanced cardiac mesoderm differentiation into cardiomyocytes, day 4 hESC-derived cardiac mesoderm was exposed to BMP4 (30 ng/mL)+XAV939 (1 μM) for 48 hours in the presence or absence of 200 μg/mL AA2P and qPCR was conducted of day 6 populations; qPCR data were normalized such that expression values in the highest-expressing sample was normalized=1.0. […] J) In the mouse embryo, endocardium (progenitors to heart-affiliated endothelium) are marked by transient coexpression of pan-heart marker Nkx2.5 together with endothelial markers (Ferdous et al., 2009; Stanley et al., 2002).

As for `Cc1cccc(-c2[nH]c(C(C)(C)C)nc2-c2ccc3c(c2)OCO3)n1` [SB-505124, 2-[4-(1,3-Benzodioxol-5-yl)-2-(1,1-dimethylethyl)-1H-imidazol-5-yl]-6-methyl-pyridine], the PS differentiation result in the assay with hESCs (CHIR99021+20 ng/mL FGF2+100 nM PIK90 with 2 μM SB-505124 or 1 μM A-83-01) is “strongly impairs PS differentiation”.
For the molecule `Cc1cnc(-c2cnc(NCCNc3ccc(C#N)cn3)nc2-c2ccc(Cl)cc2Cl)[nH]1` [CHIR99021, 6-[[2-[[4-(2,4-Dichlorophenyl)-5-(5-methyl-1H-imidazol-2-yl)-2-pyrimidinyl]amino]ethyl]amino]-3-pyridinecarbonitrile], in assay [1] (BMP4 30 ng/mL with CHIR99021 3 μM, 48 hours), the “differentiation into cardiomyocytes (qPCR day 6)” value was “fully blocked cardiac mesoderm differentiation into cardiomyocytes”. The “PS marker expression (qPCR)” value in the assay with hESCs (24 hours in A3B3F20, 300 ng/mL WNT3A or 0.5-8 μM CHIR99021) was “broadly induces both anterior (TBX6) and mid/posterior (FOXF1, MESP1) PS markers”.

B1: BMP4: BMP family ligand, BMP agonist (protein, UniProt P12644 293-408, looked up)
Bone morphogenetic protein 4: SPKHHSQRARKKNKNCRRHSLYVDFSDVGWNDWIVAPPGYQAFYCHGDCPFPLADHLNSTNHAIVQTLVNSVNSSIPKACCVPTELSAISMLYLDEYDKVVLKNYQEMVVEGCGCR
In the case of B1, the “cardiovascular fate commitment (TNNT2, MYH6, MYH7)” value in assay [1] (XAV939 1 μM with BMP4 5-30 ng/mL, 48 hours) is given as “preferentially promotes commitment to cardiomyocyte fate”. Moreover, in assay [1] (day 4 cardiac mesoderm, BMP4 30 ng/mL, 48 hours), the “cardiomyocyte and endothelial gene expression” value is “upregulation of both cardiomyocyte (myocardium) and endothelial (presumptive endocardium) genes”. Also, the “PS formation and anterior-posterior patterning” value with hESCs (ACFK with LDN193189 250 nM or BMP4 3-100 ng/mL) is “induced posterior PS”.

B2: Activin: TGFβ agonist (protein, UniProt P08476 311-426, looked up)
Inhibin beta A chain: GLECDGKVNICCKKQFFVSFKDIGWNDWIIAPSGYHANYCEGECPSHIAGTSGSSLSFHSTVINHYRMRGHSPFANLKSCCVPTKLRPMSMLYYDDGQNIIKKDIQNMIVEECGCS
modifications: Inhibin beta A chain
notes: TGFβ agonist
Regarding B2, the subsequent cardiomyocyte differentiation entry in assay [1] (day 3 cardiac mesoderm, BMP4+C59+FGF2 with Activin 25 ng/mL, 24 hours) is “enhanced subsequent cardiomyocyte differentiation”.
